Experiment: soluble on expression in E. coli; label from the status in PepcDB or PDB records

Sequence | soluble on expression in E. coli
MAHHHHHHMSARMQFPLSQRRHTNIAVVRYSKNGVKLEIACYKNKVISYRSGTENRLDEVLQVERIFANVARGYLASEKEIQTVFGGEMTEAEAIRYMLDHGELQVAQQERAAEVDEMFKDIAVIISQKCINTKTQRPFPPQVVEQALRSIGAAVKLDQSVKKQALGLIHLLIDSDILPIARANMKIRCTTTSEAALEKLRGWCRDNDADVVSDSVTGKTSDGGSGNFGHALLLLMQPNLFRDLDHFVKEALPSGSTIHMVEAAVTEVGDSDVLLDANAVSLANAQPGRAEEEATMAGSRRAAAAPSSSSAGEVNRGCSDGRGGETGMSSNLGQGADNASNGQHQSDGEGKRGRTGKAKGTTRRGHRGRQSNNSDGDDLLDGSTDGAAEGGLGVDHDIAAGLQRLGLDPSHDLQDDSDDDGGRGRGSRGKKKKNASGTGGGPYQSQGAGGRKAGGGAAAVDDDDNAGKGKKGRKNAKSKKVAAAEKAKPGAEGAFSDSDEELMGNRKQRAKKQQETRMQQGGNDWHEEDFDYGEDEEAEVQLS | soluble
SMYMSNPTVRIAFVGKYLQDAGDTYFSVLQCFEHCQIALQVRLDILYVDSEELEGPNADEARKALLGCDGIFVPGGFGNRGVDGKCAAAQVARMNNIPYFGVCLGMQVAVIELSRNVVGWSDANSEEFNKESTHQVVRIMDCDRNKMGANMHLGACDVYIVEKSSIMAKIYSKSNIVVERHRHRYEVNTAYFEDLRKAGLCISAVTDPTFSSRCRVEAVENPSLRFFLAVQFHPEFISTPMDPAPTYLSFMAAAAKKDYVWPQKCSQRRLKQA | soluble
MGSDKIHHHHHHMAQVLWIIQIISKGLVRTLRFKAHILRMILLGSLGVAIHVSVVNAAVTDNSLPQESIPLVQGFIDAVKAHDRQAIADYMAYPIKRTNPIPAINTPEELLKRFDQVFDPEILETIAQSQVEADWQAMGWRGIMLGSGTIWMDFDGKITAVNYQTPAETKLKAELIANQKTGLHESVSQFVSPELAWQTAKFTIRVDNMGNSQYRYASWAKGKPLSEKPDLVLNQGKLVFDGSGGNHSFQFTSGPYLYVCDVIVLGTSDSPIGELVVFKHDRVLLREPAIKAE | not soluble
MEHDLNDMMVFLAVVETGSFTLAADRLGMPKANVSRKVSRLEKNLAVTLLERSTRSQHLTEAGRRYLAHCKRIHEELDLATASVCELFHSYTGELKIGASVASGQQVLRPALGKFMRQYPDLKVQLNLVNRRVDFIEEGFDVVIRIGQLNDSMLIAKKLGAINRKIFASPSYLAKQGNPDKVEQLTEHQLLIMNPLNISGNKDLKLPLTSTDHETFTLDCQPRLLVDDFSMLKQAIVDGLGIGVLPDYMCRQEVASGQLVNILPDWGMAKVDIYALYPKHRAKIPKVKAFIDFVSELYGEVL | not soluble
MADYADAVVTQESALTTSPGETVTLTCRSSTGAVTTSNYASWVQEKPDHLFTGLIGGTNNRAPGVPARFSGSLIGDKAALTITGAQTEDEAIYFCALWYSNHWVFGGGTKLTVLGGGGGSGGGGSGGGGSGGGGS | soluble
MGSDKIHHHHHHMSTPPVDVCYKVNAPLSSQQFVELLAKTSLGPRRPLDDETAITGMLKHANLLVSAWQGETLVGIARSVTDFHFCCYLSDLAVSDDFQHAGIGKKLIQQTAQQLGKGCKIILLAAPLAVDYYPKLGFEKHNSAWLMAASDLHSEA | not soluble
MGSDKIHHHHHHMIVLLREINRYCKEKATGKRIYAVPKLWIPGFFKKFDEKSGRCFVDPYELGAEITDWILNQSREWDYSQPLSFLKGEKTPDWIKRSVVYGSLPRTTAAYNHKGSGYYEENDVLGFREAGTFFKMMLLLPFVKSLGADAIYLLPVSRMSDLFKKGDAPSPYSVKNPMELDERYHDPLLEPFKVDEEFKAFVEACHILGIRVILDFIPRTAARDSDLIREHPDWFYWIKVEELADYTPPRAEELPFKVPDEDELEIIYNKENVKRHLKKFTLPPNLIDPQKWEKIKREEGNILELIVKEFGIITPPGFSDLINDPQPTWDDVTFLRLYLDHPEASKRFLDPNQPPYVLYDVIKASKFPGKEPNRELWEYLAGVIPHYQKKYGIDGARLDMGHALPKELLDLIIKNVKEYDPAFVMIAEELDMEKDKASKEAGYDVILGSSWYFAGRVEEIGKLPDIAEELVLPFLASVETPDTPRIATRKYASKMKKLAPFVTYFLPNSIPYVNTGQEIGEKQPMNLGLDTDPNLRKVLSPTDEFFGKLAFFDHYVLHWDSPDRGVLNFIKKLIKVRQQFLDFVLNGKFENLTTKDLVMYSYEKNGQKIVIAANVGKEPKEITGGRVWNGKWSDEEKVVLKPLEFALVVQE | not soluble
HGPWPAAGAWELTILHTNDVHSRLEQTSEDSSKCVNASRCMGGVARLFTKVQQIRRAEPNVLLLDAGDQYQGTIWFTVYKGAEVAHFMNALRYDAMALGNHEFDNGVEGLIEPLLKEAKFPILSANIKAKGPLASQISGLYLPYKVLPVGDEVVGIVGYTSKETPFLSNPGTNLVFEDEITALQPEVDKLKTLNVNKIIALGHSGFEMDKLIAQKVRGVDVVVGGHSNTFLYTGNPPSKEVPAGKYPFIVTSDDGRKVPVVQAYAFGKYLGYLKIEFDERGNVISSHGNPILLNSSIPEDPSIKADINKWRIKLDNYSTQELGKTIVYLDGSSQSCRFRECNMGNLICDAMINNNLRHTDEMFWNHVSMCILNGGGIRSPIDERNNGTITWENLAAVLPFGGTFDLVQLKGSTLKKAFEHSVHRYGQSTGEFLQVGGIHVVYDLSRKPGDRVVKLDVLCTKCRVPSYDPLKMDEVYKVILPNFLANGGDGFQMIKDELLRHDSGDQDINVVSTYISKMKVIYPAVEGRIKFSTGSVRASSPSPL | soluble
MGSSHHHHHHSQDPNSLEVLFQGPMAGGRDRGDLAARQLVFLLPEHLKDASKKKKKSSLLFVKLANPHSGEGATYLIDMCLQQLFEIKVFKEKHHSWFINQSVQSGGLLHFATPMDPLFLLLHYLLKAGKEGKYQPLDQVVVDDTFPDCTLLLRFPELEKSLRHVTEEKEVNSKKYYKYSSEKTLKWLEKKVNQTVVALKANNVNVGARVQSSAYFSGGQVSRDKEEDYVRYAHGLISDYIPKELSDDLSKFLKLPEPPASLPNPPSKKLKLSDEPVEAKEDYTKFNTKDLKTGKKNSKMTAAQKALAKVDKSGMKSIDAFFGAKNKKTGKI | soluble
MGRYSVKRYKTKRRTRDLDLIYNDLSTKESVQKLLNQPLDETKPGLGQHYCIHCAKYMETAIALKTHLKGKVHKRRVKELRGVPYTQEVSDAAAGYNLNKFLNRVQEITQSVGPEKESNEALLKEHLDSTLANVKTTEPTLPWAAADAEANTAAVTEAESTASAST | soluble
MTLNYHAHGKEIEASYRRASDDSDGDKWVIFDYEGNSNTLRVKEEGTGGLEEFADSFSSGKLQFGVISVRLSSDVFPKIVLVHWQGEGVPTLRLASTTPHAEEFRRFLKTVHIVLHARSEIDIEPDAIRKEVRKLPAANANAIVESTYSMPEKVNSVYQPTNAHSELSSEARENFWSTTNQEEKRRQADEKVAHAKQQKQYEADRDRTAAAIHTKAEDFQPEKVNSVYKPTKPHVELKTVKREEFWSKMNEEEKLRQEEEKTAREQAHKQFEADRQRMASEIHSKTENYQPDKVTSVYKPTKPHVEISSSAREEFWSKMNEEEQRRQAEEKEAQAQKQKEFETDRKRIADDLHGKAQISDKPVPSSVNPAPAPAPTPSAGLVGSRKELFSSKPSGPVLPKPQVNGSPKKWPPVGTTSPPREPVNRLTEPDEPSTYTPKPIAYEPEPMVYKPEAMKPAVSYDAYEEPPAEPAPPTFLAPTPVIAPPPPEPTPAPSHYASQYDAPPVHESFEPAVPPVSAPSHYASQYDAPPEPIDSHSSSSQLPAHIASQYDMPPVMPEEPVFAPKSSPIKVAAPPIDQYDFPPAVAEQNAMALWDYQAADDTEISFDPDDIITDIDQVDSGWWKGRAPSGRVGLFPANYVKLI | not soluble
MSTHLLHALWLKNSGLHLWIEQVEGHKIVLSDAVPDNTFPDSVATLIRGKRFTHQVKTKLLTPKGREVTLQLPTIAFTPEQAVRVLSQIAAITPMMASSAQRATLAPDLMWMVRLYQGLEQFVRAGRLTIKLGYADHQWWPTWQLSSGLQERGWIAQMTAAAPGVLIANAGSSVAEDIADELPHWIANFLLQDLLDTPRSSEWHSFPEALMRSTPLRRGTAQLVSALNEWRDSMTSVSVQLVFIVEEPSKDREDRIDPADMLWPIRVRVRSGVDSPQPIMLSHYDSATKERLNALRREAILVAPILEKQGTDSNVTPTQLFELQREEGAGDWDCYVTTDQLVEFIGDAAARLKSRGFNVLLPRSWDQQETKAHLRLSDPAEASTQATIGLDKIVDYDWHMSVGDIELTEAEMVELVRSKSGLIHLRGEWVMADTAAIRRIGDYMKDVAAQSRKRKKQALDTAVMEAELAKANDDPRWPMLEARAEKLAEEFNNEFAEFGQVTLAELRELALKAQENEPIAYTGSPWHASLAGGSMGKDSPAPQRVSI | not soluble
MGSDKIHHHHHHSSDYFTTNPEVLEAIGGKVPVTINGKFPEKYFKKNATVEVTPVLRWKGGEAKGQPAVFQGEKVEGNNQTIAYKAGGSYTMKASFDYVPEMANSELYLDFKITKGKKSYTIPSVKIADGVIATSELPTAASSNASYANDAFQRIIKDAQTANIMFLIQQANLRNSELNSDDIKEFHKKVAEINADTKNYKLNNIEISAYASPDGGVELNTGLAENREANTEKYMERQLKKGKIDTNLDAKYTAQDWEGFQELVSKSNLQDKDLILRVLSMYNDPEQREAEIKNISSVYKTLADEILPQLRRARLTANYDIIGRSDDEINEAFNSDPKVLSVEELLYAATLTNDNARKEAIFTKTTQLYPNDFRAYNNLGELAFAAGDAAKAESYFKQAASKNANAPEVNANLGLCELVKGNVAAAETYLGKATGANAAGEALGNLYIKQGQYDRAVNSFGDAKTNSAAQAQILAKDYNKAKATLSAIKNPDAMTDYLMAIVGARTNNASLVSSSIKSAIAKDPSMAEKAANDREFAKYADAIK | not soluble
VCLEFQDCGVGLNAAQFKQLLISAVKDLFGEVDAALPLDILTYEEKTLSAILRICSSGLVKLWSSLTLLGSYKGKKCAFRVIQVSPFLLALSGNSRELVLD | not soluble
MGHHHHHHSHMAAEPVEDNCINFVAMKFIDNTLYFIAEDDENLESDYFGKLESKLSVIRNLNNQVLFIDQGNRPLFEDMTDSDCRDNAPRTIFIISMYKDSQPRGMAVTISVKCEKISTLSCENKIISFKEVNPPDNIKDTKSDIIFFQRSVPGHDNKMQFESSSYEGYFLTCEKERDLFKLILKKEDELGDRSIMFTVQNED | soluble
MLASKMRWEIQRPDQDKVKSLTEQLHITPLVASLLVKRGFDTAESARLFLHTKDADFYDPFEMKGMKEAADRIKQAISQQEKIMIYGDYDADGVTSTSVMLHTLQKLSAQVDFYIPDRFKEGYGPNEQAFRSIKERGFSLIITVDTGIAAVHEAKVAKELGLDVIITDHHEPGPELPDVRAIVHPKQPGCTYPFKELAGVGVAFKLAHALLGELPDELLDLAAIGTIADLVPLHDENRLIATLGLERLRRTNRLGLKELIKLSGGDIGEANEETVGFQLAPRLNAVGRIEQADPAVHLLMSEDSFEAEELAAEIDQLNKERQKMVSKMTDEAIEMVEQQGLDQTAIVVAKAGWNPGVVGIVASKLVDRFYRPAIVLGIDEEKGIAKGSARSIRGFNLFESLSECRDILPHFGGHPMAAGMTLKAEDVPDLRSRLNEIADNTLTEEDFIPVQEVDLVCGVEDITVESIAEMNMLSPFGMLNPKPHVLVENAVLEDVRKIGANKTHVKMTIRNESSQLDCVGFNKGELQEGIVPGSRISIVGEMSINEWNNRKKPQLMIKDAAVSEWQLFDLRGKRTWEDTVSALPSAKRAIVSFKEDSTTLLQTEDLRREVHVISSKDQAKAFDLDGAYIVLLDPPPSLDMLARLLEGKAPERIYFIFLNHEDHFLSTFPARDHFKWYYAFLLKRGAFDVKKHGSELAKHKGWSVETINFMTKVFFDLGFVKIENGVLSVVSGAKKRDLTDSQTYQAKQQLMELDQKLNYSSAEELKEWLNKLMKQDSEAYESTRR | not soluble

— the DeepSol protein solubility set
